What was measured:
Type in all cases: cell-based, human
[1] = test system: wild-type and variant SNAP-GIPR; assay: Surface SNAP-GIPR expression (SNAP-tag labelling) in AD293 cells; conditions: for AD293 Surface: Fig S3E, mean; for Surface SNAP-GIPR expression: sheet Fig 1C;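 on all read-outs here: scaled to the experimental average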
Method: (§1) Twenty-four hours before the experiment, AD293 or INS-1 cells were reverse transfected with GIPR variant or wild-type plasmids using Lipofectamine 2000 in 96-well, clear-bottom, black microplates precoated with poly-D-lysine. All variants were tested in parallel on each occasion to control for transfection efficiency differences between experiments. Cells were then labeled using the cell-impermeant probe SNAP-Surface Alexa Fluor 647 (500 nM, New England Biolabs, USA) for 10 min at room temperature to label only surface GIPR. […] Several fields of view (FOVs) were acquired within each well using a 20X, 0.75–numerical aperture (NA) air objective. Surface GIPR fluorescence was quantified after flat-field correction using BaSiC ([72]) and segmenting using Phantast ([73]), which generates a mask based on the phase contrast images to demarcate cell versus noncell. Wide-field imaging of the surface-specific labeling achieved by SNAP-Surface probes means that surface expression can be established from whole-cell fluorescence, after subtracting nonspecific fluorescence from a separate well containing nontransfected cells processed in parallel from the same experiment. Data were normalized by dividing by the average specific signal across each experiment, or by the wild-type value, as indicated in the figure legends.

[2] = test system: wild-type and variant SNAP-GIPR; assay: Surface SNAP-GIPR expression (SNAP-tag labelling) in INS-1 cells; conditions: Fig 4G; Mean
Method: as §1

[3] = test system: wild-type and variant SNAP-GIPR; assay: Single-concentration GIP cAMP response by HTRF in AD293 cells; conditions: Fig S3F, HTRF, mean;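 further: ratio to experiment-wide average response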
Method: (§2) All variants were tested in parallel on each occasion to control for transfection efficiency differences between experiments.

[4] = test system: wild-type and variant SNAP-GIPR; assay: Single-concentration GIP cAMP response by HTRF in INS-1 cells; conditions: Fig S3E, mean
Method: as §2

[5] = test system: wild-type and variant SNAP-GIPR; assay: cADDis cAMP imaging in AD293 cells, ensemble, expression-matched and per decile; conditions: Fig S3F, cADDis, mean
Method: AD293 cells were reverse transfected with the GIPR variant or wild-type plasmids using Lipofectamine 2000 and cotransduced with the cADDis Green Up BacMam (10 μl per well, Montana Molecular, USA), in 96-well, poly-D-lysine–coated microplates. All variants were tested in parallel on each occasion to control for transfection efficiency differences between experiments. After 24 hours, cells were labeled using 500 nM SNAP-Surface Alexa Fluor 647 for 10 min at room temperature. Cells were washed three times and then imaged in KRBH buffer containing 6 mM glucose and 0.1% BSA. Imaging was performed at 37°C by wide-field microscopy using the same microscope as in the “Assessment of surface GIPR expression by SNAP-tag labeling in cell lines” section, with 9 FOVs for both cADDis and SNAP-Surface fluorescence acquired from each well using a 10X, 0.45 NA air objective. […] Flat-field correction was performed using BaSiC ([72]), drift correction was performed using SIFT, and a maximum intensity projection of the cADDis channel was used to segment individual cells. cAMP responses were determined by quantifying the cADDis fluorescence intensity for each cell at each time point. Nonviable cells or noncell objects were excluded according to criteria for allowable cell IBMX/FSK responses. […] The cADDis mask was then used to quantify the SNAP-Surface signal from each cell. Wild-type SNAP-Surface readings were split into deciles, and these deciles were subsequently used to categorize variant-transfected cells to match against the wild type. After trimming the top and bottom deciles, the mean was taken of each decile mean for surface expression level or cAMP response, which achieved matched expression levels by effectively applying an inverse weighting to counteract differences in cell number in each decile for different variants. Ensemble expression levels or cAMP responses were calculated without regard to deciles. Variant cADDis responses were also analyzed within their own surface expression deciles.

[6] = test system: wild-type and variant SNAP-GIPR; assay: Constitutive and agonist-mediated internalization, reversible SNAP-tag labelling, AD293 cells; parameters: key to Internalisation, Vehicle / Internalisation, +GIP / Internalisation, GIP-only: % internalization: residual fluorescence after Mesna vs pre-Mesna; Surface expression: unit not given here; conditions: Mean
Method: (§3) Twenty-four hours before the experiment, AD293 or INS-1 cells were reverse transfected with GIPR variant or wild-type plasmids using Lipofectamine 2000 in 96-well, clear-bottom, black microplates precoated with poly-D-lysine. All variants were tested in parallel on each occasion to control for transfection efficiency differences between experiments. […] Media were then removed, cells washed with PBS and then placed in TNE buffer (pH 8.6) for imaging. […] After 10 min, the well was reimaged again to detect remaining fluorescence from internalized GIPR. Images were analyzed as in the “Assessment of surface GIPR expression by SNAP-tag labeling in cell lines” section, with the residual specific fluorescence after Mesna treatment expressed relative to the pre-Mesna value to establish percentage internalization.

[7] = test system: wild-type and variant SNAP-GIPR; assay: Constitutive and agonist-mediated internalization, reversible SNAP-tag labelling, INS-1 cells; parameters: key to Internalisation, GIP-only / Internalisation, Vehicle / Internalisation, +GIP: % internalization: residual fluorescence after Mesna vs pre-Mesna; conditions: Mean
Method: as §3

B1: I378M (protein, UniProt P48546 22-466, looked up, variant I378M)
Gastric inhibitory …: RAETGSKGQTAGELYQRWERYRRECQETLAAAEPPSGLACNGSFDMYVCWDYAAPNATARASCPWYLPWHHHVAAGFVLRQCGSDGQWGLWRDHTQCENPEKNEAFLDQRLILERLQVMYTVGYSLSLATLLLALLILSLFRRLHCTRNYIHINLFTSFMLRAAAILSRDRLLPRPGPYLGDQALALWNQALAACRTAQIVTQYCVGANYTWLLVEGVYLHSLLVLVGGSEEGHFRYYLLLGWGAPALFVIPWVIVRYLYENTQCWERNEVKAIWWIIRTPILMTILINFLIFIRILGILLSKLRTRQMRCRDYRLRLARSTLTLVPLLGVHEVVFAPVTEEQARGALRFAKLGFEMFLSSFQGFLVSVLYCFINKEVQSEIRRGWHHCRLRRSLGEEQRQLPERAFRALPSGSGPGEVPTSRGLSSGTLPGPGNEASRELESYC
[1]; column repeated, paired with cAMP 100 nM
  AD293 Surface: 1.77
[1]; paired with cAMP 100 pM
  AD293 Surface: 1.77
[1]; replicate 1
  Surface SNAP-GIPR expression: 1.773
[1]; replicate 2
  Surface SNAP-GIPR expression: 1.115
[1]; replicate 3
  Surface SNAP-GIPR expression: 0.7558
[1]; replicate 4
  Surface SNAP-GIPR expression: 2.264
[1]; replicate 5
  Surface SNAP-GIPR expression: 2.029
[1]; replicate 6
  Surface SNAP-GIPR expression: 1.522
[1]; replicate 7
  Surface SNAP-GIPR expression: 1.263
[1]; replicate 8
  Surface SNAP-GIPR expression: 1.045
[1]; replicate 9
  Surface SNAP-GIPR expression: 1.7
[1]; replicate 10
  Surface SNAP-GIPR expression: 1.857
[1]; replicate 11
  Surface SNAP-GIPR expression: 1.523
[1]; replicate 12
  Surface SNAP-GIPR expression: 1.59
[1]; replicate 13
  Surface SNAP-GIPR expression: 1.942
[1]; replicate 14
  Surface SNAP-GIPR expression: 2.071
[1]; replicate 15
  Surface SNAP-GIPR expression: 1.739
[1]; replicate 16
  Surface SNAP-GIPR expression: 1.656
[1]; replicate 17
  Surface SNAP-GIPR expression: 1.757
[1]; replicate 18
  Surface SNAP-GIPR expression: 2.038
[1]; replicate 19
  Surface SNAP-GIPR expression: 1.806
[1]; replicate 20
  Surface SNAP-GIPR expression: 1.652
[1]; replicate 21
  Surface SNAP-GIPR expression: 1.678
[1]; replicate 22
  Surface SNAP-GIPR expression: 1.86
[1]; replicate 23
  Surface SNAP-GIPR expression: 1.91
[1]; replicate 24
  Surface SNAP-GIPR expression: 1.99
[1]; replicate 25
  Surface SNAP-GIPR expression: 1.721
[1]; replicate 26
  Surface SNAP-GIPR expression: 1.677
[1]; replicate 27
  Surface SNAP-GIPR expression: 2.102
[1]; replicate 28
  Surface SNAP-GIPR expression: 2.164
[1]; replicate 29
  Surface SNAP-GIPR expression: 2.007
[1]; replicate 30
  Surface SNAP-GIPR expression: 1.865
[1]; replicate 31
  Surface SNAP-GIPR expression: 1.878
[1]; replicate 32
  Surface SNAP-GIPR expression: 1.784
[1]; replicate 33
  Surface SNAP-GIPR expression: 1.822
[1]; replicate 34
  Surface SNAP-GIPR expression: 1.937
[1]; replicate 35
  Surface SNAP-GIPR expression: 1.581
[1]; replicate 36
  Surface SNAP-GIPR expression: 1.504
[1]; replicate 37
  Surface SNAP-GIPR expression: 2.229
[1]; replicate 38
  Surface SNAP-GIPR expression: 1.734
[1]; replicate 39
  Surface SNAP-GIPR expression: 2.181
[1]; replicate 40
  Surface SNAP-GIPR expression: 1.889
[1]; replicate 41
  Surface SNAP-GIPR expression: 1.94
[2]
  Surface expression: 1.534
[3]; AD293, 100 pM
  AD293 100 pM HTRF: 1.235
[3]; AD293, 100 nM
  AD293 100 nM HTRF: 1.479
[4]
  INS-1 cAMP (100 nM): 1.242
[5]; AD293, 100 pM
  AD293 100 pM cADDis: 37.0191
[5]; AD293, 100 nM
  AD293 100 nM cADDis: 39.23
[6]; Fig 4E, GIP 100 nM
  +GIP internalisation (100 nM): 1.013
  GIP-specific internalisation (100 nM): 0.2773
[6]; Fig 4E
  Constitutive internalisation (100 nM): 0.7358
  Surface expression: 1.854
[6]; Fig S4C, AD293
  Internalisation, +GIP: 54.7212
  Internalisation, GIP-only: 14.9417
  Internalisation, Vehicle: 39.7795
[7]; Fig 4G, GIP 100 nM
  +GIP internalisation (100 nM): 0.6937
  GIP-specific internalisation (100 nM): 0.1611
[7]; Fig 4G
  Constitutive internalisation (100 nM): 0.5325
[7]; Fig S4C, INS-1
  Internalisation, +GIP: 45.8367
  Internalisation, GIP-only: 10.74
  Internalisation, Vehicle: 35.0967
